Reference: PMC12207370, “Macrocyclic Peptide Probes for Immunomodulatory Protein CD59: Potent Modulators of Bacterial Toxin Activity and Antibody‐Dependent Cytotoxicity” (Angewandte Chemie (International Ed. in English), 2025)

Target: T1, biotinylated CD59 (Homo sapiens, UniProt P13987)
T1 construct: Recombinant soluble human CD59 with an additional C-terminal cysteine residue
T1 sequence (P13987 26-102 limits assumed): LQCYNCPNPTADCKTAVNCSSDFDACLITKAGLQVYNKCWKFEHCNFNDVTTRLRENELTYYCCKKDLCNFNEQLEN
Test: mRNA-display cyclic peptide screen against CD59-biotin, NGS abundance after 6th selection round
Settings: for Percentage Seq I: counts normalised by total counts of sample Seq I; for Percentage Seq I / Percentage Seq II: percentage of the pool; for Percentage Seq I / Percentage Seq II / Percentage Average / Percentage of the pool, averaged across the two sequencing samples / Percentage of the pool, Seq I / Percentage of the pool, Seq II: sheet R6; for Percentage Seq II: counts normalised by total counts of sample Seq II; for Percentage Average: percentage of the pool averaged across the two sequencing samples; for Counts Seq I / Counts Seq II: raw NGS counts of peptide sequence; for Counts Seq I: sequencing sample Seq I; for Counts Seq I / Counts Seq II / Counts (raw counts for peptide sequence), Seq I / Counts (raw counts for peptide sequence), Seq II: sheet R6 (6th selection round); for Counts Seq II: sequencing sample Seq II; for Counts (raw counts for peptide sequence), Seq I: NGS sample Seq I; for Counts (raw counts for peptide sequence), Seq II: NGS sample Seq II; for Percentage of the pool, averaged across the two sequencing samples: average of Seq I and Seq II; for Percentage of the pool, Seq I: counts normalised by total counts of NGS sample Seq I; for Percentage of the pool, Seq II: counts normalised by total counts of NGS sample Seq II
Source text: To discover novel non‐protein CD59 ligands, we screened a library of 10^12 cyclic peptides against CD59 using mRNA‐display (Figure 2a).^[ [23], [24], [25], [26], [27], [28], [29] ^] Briefly, an mRNA library was designed in which the start codon was reprogrammed from Met to N‐chloroacetyl‐D‐Tyr (ClAc‐D‐Tyr), followed by 10–12 randomly encoded natural amino acids, a Cys residue, a (GlySer)3 linker, and a stop codon. […] The total library diversity was 1.51 × 10^13 molecules, comprising 5.02 × 10^12 molecules of each macrocycle size, covering a subset of the maximum theoretical diversity of this library design. Following in vitro translation, ClAc‐D‐Tyr spontaneously reacts with either the C‐terminal Cys or a Cys in the random region, yielding macrocyclic thioether peptides. Hits from the library were identified through iterative enrichment and amplification against biotinylated CD59, then immobilized on streptavidin beads. Fifteen hit sequences (CP‐01 to CP‐15), enriched with abundance >1% relative to the total pool of recovered binders after the 6th round of selection, were synthesized by solid phase peptide synthesis (SPPS), without the (Gly‐Ser)3 linker.
Figure 2 Discovery of macrocyclic peptide ligands with nanomolar CD59 affinity using mRNA display. a) The selection process. PCR = polymerase chain reaction, SPPS = solid phase peptide synthesis. b) Table showing details of the peptides with nanomolar affinity for CD59 as well as the binding affinity of the lead inhibitor of CD59, rILYd4. K D values are presented as the average of three technical replicates ± SEM. Structures of all peptides and SPR sensograms are presented in Figures S1 and S2. *indicates the presented sequences are the variable regions of these cyclic peptides; each is flanked by an N‐terminal Ac‐D‐Tyr cyclized to a C‐terminal Cys. R6 abundance (%) is defined as (the given number of NGS reads for a given sequence/the total number of reads of unique sequences observed in NGS)*100 following the 6th selection round. c) Representative sensogram of the interaction between CP‐06 with immobilized CD59 by SPR analysis. Inset showing the equilibrium binding curve of CP‐06 to CD‐59. Below in the box are the association and dissociation rate constants of CP‐06. Concentrations are plotted in descending order from 800‐3.1 nM in line with their position on the legend. […] (nM)'; the box with Kon/Koff has no label of its own / ILYd4: the label may be cut off at the left edge (possibly 'rILYd4') / CP-02, KD: 15.3 ± 0.2, small print, 3 or 8 uncertain / CP-03, KD: 23.4 ± 0.7, small print / CP-06, KD: 11.3 ± 0.0, small print, 3 or 8 uncertain / CP-13, KD: 10.8 ± 0.7, small print, 8 or 6 uncertain / ILYd4, KD: 48.3 ± 1.1, small print, 8 and 3 uncertain
The mRNA-display cyclic peptide screen was performed against CD59-biotin by T.E.M: DNA templates for transcription were generated by PCR in a similar manner to that previously described.^2 RNA oligonucleotides were transcribed from the DNA templates using T7 RNA polymerase and purified by phenol/chloroform extraction followed by ethanol precipitation. Oligonucleotide concentrations were determined spectroscopically by absorbance at 260 nm. In the first selection round a 1:1:1 molar ratio of NNK10/NNK11/NNK12 was used. The procedure for selection rounds 2-6 is described below; round 1 was conducted at twice the scale.
RNA encoding for the peptide library ligated to a puromycin-modified oligonucleotide was […] (final [RNA] = 2.5 µM) using a customised PURE express kit (lacking release factor 1 and methionine, supplemented with […] initiator tRNA acylated with N-chloroacetyl-d-tyrosine prepared as previously described)^3 in a final volume of 5.6 µL for 1 hour at 37 °C.
This mixture was incubated at 42 °C for 1 hour before being diluted to 500 µL with PBS (10 mM Na-PO4 pH 7.4, 2.7 mM KCl, 137 mM NaCl) and 0.5 µL taken for subsequent use in qPCR. […]

Sequence	Percentage Seq I [%]	Percentage Seq II [%]	Percentage Average [%]	Counts Seq I	Counts Seq II	Counts (raw counts for peptide sequence), Seq I	Counts (raw counts for peptide sequence), Seq II	Percentage of the pool, averaged across the two sequencing samples [%]	Percentage of the pool, Seq I [%]	Percentage of the pool, Seq II [%]
LGGRGCFRPCSAAAAAAARTGGG	0.050	0.042	0.046	220	18					
CLRRSFLDNAGV						57	7	0.015	0.013	0.016
WILGSRWWTRS	0.097	0.111	0.104	424	48					
FKYGNSNFVRG	0.035	0.039	0.037	154	17					
FVTGNREHTRG	0.025	0.035	0.030	110	15					
LCYVKGSKDFT	0.027	0.019	0.023	120	8					
CFVNRLGSAESR						63	9	0.018	0.014	0.021
CFSTRLSRSYGT	0.016	0.026	0.021	68	11					
IARGDWNHQFY	0.514	0.450	0.482	2249	194					
CFARRLSASSGT	0.024	0.028	0.026	106	12					
VARGSKDWRWS						41	6	0.012	0.009	0.014
STRRDRLGLIC	1.051	1.033	1.042	4600	445					
SVTGNRDHTRG	0.021	0.026	0.023	92	11					
ILGSRDTIKYW	0.118	0.167	0.142	515	72					
FVTGNSDHTRG						52	4	0.011	0.012	0.009
